Measurements as given in article PMC10570040.

Tests used:
[1] = biological target: T1, EnfR wild-type (TON_1525) (Thermococcus onnurineus NA1) (UniProt B6YTS4); assay: EMSA; conditions: EMSA: 10 mM Tris pH 7.4, 200 mM KCl, 2 mM DTT, 0.2 mM EDTA, 37 C 20 min, ITC: 10 mM Tris-HCl pH 7.4, 200 mM KCl, 1 mM TCEP, 25 C, footprint: 20 mM …
T1 sequence: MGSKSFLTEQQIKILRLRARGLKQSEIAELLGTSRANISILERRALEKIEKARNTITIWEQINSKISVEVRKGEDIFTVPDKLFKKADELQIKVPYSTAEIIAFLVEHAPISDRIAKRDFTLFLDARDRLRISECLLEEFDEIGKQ

[2] = biological target: T1, EnfR wild-type (TON_1525) (Thermococcus onnurineus NA1); assay: DNase I footprinting; conditions: EMSA: 10 mM Tris pH 7.4, 200 mM KCl, 2 mM DTT, 0.2 mM EDTA, 37 C 20 min, ITC: 10 mM Tris-HCl pH 7.4, 200 mM KCl, 1 mM TCEP, 25 C, footprint: 20 mM …

Sequence	binding [1]	binding [2]
AACAGGGTGTTACATACTTTTATTTTCAATTCTAAGCTTCAAAAAACTCTTTTAAAAGTGAACATCCAATTAGGTTTGGGAAATGGTAAACAAAATTGTAAAAGGGTGTTTTGAACCAAACGTGGGGTGATAGAAAGATGGCATTTAT (double strand) [P1582]	binds	–
GAGAGTTTTACTGTCTCTAAATGAAAGGTTCTAATACGGTGGATCGAATAATTTCTTGCGTTTTTATCCGGATCGCCGAACACGATTCCATCTTAAAATCTTTTTGTTTACATTATACGAGGTGATCAACAATGCCAGCTTTTTCCGGTT (double strand) [150-bp codh promoter probe]	–	binds
